Laboratory results reported in IntAct's records for PubMed 15169891.

biological target: wasl_bovin WASL (UniProt Q95107)
Sequence (Q95107 whole entry): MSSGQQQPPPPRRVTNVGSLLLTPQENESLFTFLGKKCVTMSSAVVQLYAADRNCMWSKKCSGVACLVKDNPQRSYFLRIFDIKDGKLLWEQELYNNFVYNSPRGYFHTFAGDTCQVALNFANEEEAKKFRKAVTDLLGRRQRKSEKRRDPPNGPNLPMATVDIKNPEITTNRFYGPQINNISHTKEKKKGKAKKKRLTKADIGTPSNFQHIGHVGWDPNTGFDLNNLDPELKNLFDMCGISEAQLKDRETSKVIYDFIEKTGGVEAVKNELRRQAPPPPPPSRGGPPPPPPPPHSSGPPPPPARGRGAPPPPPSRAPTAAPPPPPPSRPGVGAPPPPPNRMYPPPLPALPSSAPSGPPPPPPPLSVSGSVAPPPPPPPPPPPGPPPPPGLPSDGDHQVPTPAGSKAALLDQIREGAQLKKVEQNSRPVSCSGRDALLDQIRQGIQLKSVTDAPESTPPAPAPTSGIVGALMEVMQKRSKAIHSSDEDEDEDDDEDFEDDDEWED

Chain of Src substrate cortactin (Mus musculus), Q60598 S405D;P416D;Y466D;Y482D (Q60598 whole entry S405D/P416D/Y466D/Y482D): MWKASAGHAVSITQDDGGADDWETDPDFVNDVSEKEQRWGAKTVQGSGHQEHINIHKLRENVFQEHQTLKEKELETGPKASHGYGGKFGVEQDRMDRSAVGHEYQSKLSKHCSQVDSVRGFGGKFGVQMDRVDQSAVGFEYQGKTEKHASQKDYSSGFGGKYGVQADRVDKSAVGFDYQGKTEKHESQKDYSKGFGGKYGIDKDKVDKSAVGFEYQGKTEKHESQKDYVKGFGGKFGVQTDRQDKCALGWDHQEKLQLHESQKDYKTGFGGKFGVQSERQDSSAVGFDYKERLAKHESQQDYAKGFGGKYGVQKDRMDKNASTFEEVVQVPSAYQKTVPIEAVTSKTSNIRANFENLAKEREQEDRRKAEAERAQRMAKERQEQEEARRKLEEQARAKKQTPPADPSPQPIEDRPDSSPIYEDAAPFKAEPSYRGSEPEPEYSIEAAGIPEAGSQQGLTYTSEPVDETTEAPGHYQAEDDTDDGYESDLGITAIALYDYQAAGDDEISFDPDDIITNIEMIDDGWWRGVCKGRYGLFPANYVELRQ
Chain of Src substrate cortactin (Mus musculus), Q60598 S405D;S418D (Q60598 whole entry S405D/S418D): as the sequence (Q60598 whole entry S405D/P416D/Y466D/Y482D) above, with D416P, S418D, D466Y, D482Y counted along it
Chain of Src substrate cortactin (Mus musculus), Q60598 Y466D;Y482D (Q60598 whole entry Y466D/Y482D): as the sequence (Q60598 whole entry S405D/P416D/Y466D/Y482D) above, with D405S, D416P counted along it
Chain of Src substrate cortactin (Mus musculus), Q60598 W525K (Q60598 whole entry W525K): as the sequence (Q60598 whole entry S405D/P416D/Y466D/Y482D) above, with D405S, D416P, D466Y, D482Y, W525K counted along it

Row | effect of a mutation on the interaction | Substance
1 | disrupting interaction | Src substrate cortactin (Mus musculus), Q60598 W525K
2 | increasing interaction | Src substrate cortactin (Mus musculus), Q60598 S405D;S418D
3 | decreasing interaction | Src substrate cortactin (Mus musculus), Q60598 Y466D;Y482D
4 | decreasing interaction | Src substrate cortactin (Mus musculus), Q60598 S405D;P416D;Y466D;Y482D
